Reference: the supplement of paper PMC10567573

B1: PDLIM7 (parent)
chain: AAGGVPGGGSNNGKTPVCHQCHKV
B2: KLHL12 (parent)
chain: SMTTPRCYVGATVLRGRLYAIAGY
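Also: lentivirally expressed fusions sorted by FACS into six bins by GFP to DsRed ratio, PSI derived from sequencing read proportions per bin multiplied by bin number.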

Variants of: B1
Test: protein stability index of a GFP-peptide fusion (GPS, HEK-293T) (PSI 1-6); higher = more stable
Settings: c terminus: a fixed tail appended
With A2T the protein stability index was 3.08. Work on A2R yielded a protein stability index of 3.33. For A2W, the protein stability index was 3.88. A2V gave a protein stability index of 3.97. In the case of A2S, the protein stability index is reported as 3.84. Work on A2Y yielded a protein stability index of 3.72. G3D showed a protein stability index of 4.08. G3S showed a protein stability index of 3.42. G3T gave a protein stability index of 3.3. G3C gave a protein stability index of 3.41. Variant G3I has a protein stability index of 2.02. With G3K the protein stability index was 3.87. G3F gave a protein stability index of 3.31. G3N showed a protein stability index of 3.14. With G3Y the protein stability index was 3.54. G3H gave a protein stability index of 4.17. In the case of P6G, the protein stability index is reported as 2.19. P6R showed a protein stability index of 3.73. P6F gave a protein stability index of 2.85. Variant P6C has a protein stability index of 3.05. With P6K the protein stability index was 4.05. For P6N, the protein stability index was 3.46. Variant P6I has a protein stability index of 2.57. Variant P6V has a protein stability index of 3.04. Variant P6Q has a protein stability index of 3.42. In the case of P6M, the protein stability index is reported as 4.35. With P6L the protein stability index was 3.23. P6Y showed a protein stability index of 3.73. For P6W, the protein stability index was 1.96. P6E gave a protein stability index of 4.88. G8C gave a protein stability index of 3.12. In the case of G8T, the protein stability index is reported as 4.16. For G8E, the protein stability index was 5.24. In the case of G8K, the protein stability index is reported as 3.52. In the case of G8I, the protein stability index is reported as 3.48. For G8Q, the protein stability index was 3.87. Work on G8N yielded a protein stability index of 3.14. G8H showed a protein stability index of 3.3. In the case of G8F, the protein stability index is reported as 2.43. In the case of G8Y, the protein stability index is reported as 2.96. G8V gave a protein stability index of 3.53. G8D showed a protein stability index of 4.5. G8P gave a protein stability index of 3.8. Variant G8M has a protein stability index of 3.46. In the case of G8A, the protein stability index is reported as 3.58. In the case of G8W, the protein stability index is reported as 3.56. With G8L the protein stability index was 3.72. Variant G8R has a protein stability index of 3.31. With G8S the protein stability index was 2.9. G7F showed a protein stability index of 2.9. With G7Y the protein stability index was 3.4. In the case of G7V, the protein stability index is reported as 3.53. G7H showed a protein stability index of 3.68. G7P gave a protein stability index of 3.4. Variant G7K has a protein stability index of 4.09. Work on G7M yielded a protein stability index of 2.06. With G7R the protein stability index was 3.89. G7L gave a protein stability index of 3.47. With G7E the protein stability index was 4.47. With G7T the protein stability index was 3.56. Work on G7S yielded a protein stability index of 3.95. For G7Q, the protein stability index was 3.93. In the case of G7N, the protein stability index is reported as 4.05. For G7C, the protein stability index was 3.49. Variant G7D has a protein stability index of 4.3. G7I showed a protein stability index of 3.1. G7W showed a protein stability index of 2.26. G9Y showed a protein stability index of 3.56. G9P showed a protein stability index of 3.69. With G9Q the protein stability index was 3.6. With G9K the protein stability index was 3.64. G9E gave a protein stability index of 4.04. For G9I, the protein stability index was 3.48. G9W gave a protein stability index of 2.98. With G9S the protein stability index was 2.65. G9T gave a protein stability index of 2.79. G9M showed a protein stability index of 3.22. Variant G9D has a protein stability index of 4.5. Variant G9L has a protein stability index of 3.19. In the case of G9F, the protein stability index is reported as 2.39. In the case of G9N, the protein stability index is reported as 3.21. With G9R the protein stability index was 3.06. In the case of G9C, the protein stability index is reported as 2.13. With G9V the protein stability index was 2.59. With G9H the protein stability index was 3.21. With S10C the protein stability index was 2.19. S10F gave a protein stability index of 2.02. With S10K the protein stability index was 3.18. S10D gave a protein stability index of 3.96. In the case of S10Q, the protein stability index is reported as 3.02. For S10H, the protein stability index was 2.21. Work on S10N yielded a protein stability index of 3.32. Work on S10T yielded a protein stability index of 2.67. Variant S10P has a protein stability index of 2.9. For S10I, the protein stability index was 2.37. S10L showed a protein stability index of 2.47.

Variants of: B2
Test: as above
Settings: c terminus: a fixed tail appended
With P5T the protein stability index was 2.22. Work on P5N yielded a protein stability index of 2.22. In the case of P5S, the protein stability index is reported as 3.27. P5R gave a protein stability index of 4.23. For C7I, the protein stability index was 3.84. In the case of C7P, the protein stability index is reported as 1.06. Work on A22H yielded a protein stability index of 2.68. A22D showed a protein stability index of 2.12. In the case of Y19P, the protein stability index is reported as 2.22. For Y19W, the protein stability index was 3.23. For Y19M, the protein stability index was 1.79. For Y19Q, the protein stability index was 2.11. Work on Y19H yielded a protein stability index of 1.72. Y19N gave a protein stability index of 2.66. For I21N, the protein stability index was 1.81. For I21K, the protein stability index was 1.57. For I21F, the protein stability index was 2.81. Variant I21M has a protein stability index of 1.28. In the case of G23M, the protein stability index is reported as 2.83. G23H gave a protein stability index of 3.9. Work on T3M yielded a protein stability index of 1.99. With T3H the protein stability index was 2.34. T3I gave a protein stability index of 1.02. With T3E the protein stability index was 1.65. With T3Y the protein stability index was 1.62. R15N showed a protein stability index of 1.95. Variant R15M has a protein stability index of 1.59. For R15K, the protein stability index was 2.57. In the case of R17I, the protein stability index is reported as 3.46. In the case of M2G, the protein stability index is reported as 2.78. With M2Y the protein stability index was 2.77. Variant A11T has a protein stability index of 1.49. Variant A11Q has a protein stability index of 2.32. For L14A, the protein stability index was 1.79. Work on L14P yielded a protein stability index of 2.01. Work on L14Q yielded a protein stability index of 2.76. L14G showed a protein stability index of 1.55. G10L showed a protein stability index of 2.13. G10I gave a protein stability index of 2.94. G10H gave a protein stability index of 1.85. G16C gave a protein stability index of 2.22. With G16Q the protein stability index was 1.45. For G16Y, the protein stability index was 2.42. For G16V, the protein stability index was 3.05. R6F gave a protein stability index of 2.04. V13G showed a protein stability index of 2.24. With V13D the protein stability index was 1.28. In the case of V13S, the protein stability index is reported as 1.88. V13I gave a protein stability index of 1.84. Work on V13Y yielded a protein stability index of 2.03. A20W showed a protein stability index of 3.09. For A20C, the protein stability index was 2.26. With A20F the protein stability index was 2.38. T4L gave a protein stability index of 2.16. T4Y gave a protein stability index of 2.75. T4P gave a protein stability index of 1.93. With T4H the protein stability index was 3.03. L18A showed a protein stability index of 1.49. With L18T the protein stability index was 1.78. With L18Q the protein stability index was 1.81. For Y24E, the protein stability index was 2.33. Work on V9D yielded a protein stability index of 1.4. V9K showed a protein stability index of 1.63. V9F showed a protein stability index of 2.87. For V9S, the protein stability index was 1.82. S1H showed a protein stability index of 1.51. S1E gave a protein stability index of 1.66. S1I showed a protein stability index of 2.52. Variant T12N has a protein stability index of 2.87. T12Y showed a protein stability index of 4.56. In the case of Y8D, the protein stability index is reported as 1.71.
